According to patent publication US5851983A, “Elastase inhibitory polypeptide and process for production thereof by recombinant gene technology” (Teijin Limited, priority 1987, dated 1998):

What was measured:
Type in all cases: biochemical
Human plasma thrombin = molecular target: T1, Human plasma thrombin (Homo sapiens, UniProt P00734); assay: Assay for thrombin inhibitory activity (Example 36); conditions: final concentration up to ×10^-5 M; enzyme 3 × 10^-9 M
T1 construct: (5) Human plasma thrombin (Kabi, Daiichi Kagaku Yakuhin); purchased Kabi (via Daiichi Kagaku Yakuhin); host or cells: human plasma
Method: F. Human plasma thrombin (Sigma)
(§1) Thrombin and FXa: 50 mM Tris-HCl, 7.5 mM EDTA-2Na, 175 mM NaCl (pH 8.4) […]
(§2) Substrate solution: for the enzymes F, G, H and I, the following substrate f, g, h or i, respectively, was dissolved to a final concentration shown in Table 24.
f. H.D-Phe-Pip-Arg-pNA (Kabi Vitrum)
(§3) To wells of an ELISA 96-well microtiter plate, were added a solution of (Arg^58 -Ala^107) SLPI obtained in Example 34 and then the enzyme solution, and the mixture was incubated at 37° C. for 10 minutes. Next, the substrate solution was added to develop the color, whose absorption was then measured at 405 nm. As a control, SLPI was used.

Porcine FXa = assay: Assay for Fxa inhibitory activity (Example 36); conditions: final concentration up to ×10^-5 M; enzyme 1.0 × 10^-8 M
Method: I. Porcine FXa (Daichi Seiyaku)
as §1, §2
i. Ratio 1:1 mixture of the following compounds: [drawing 6]
as §3

Human plasma kallikrein = molecular target: T2, Human plasma kallikrein (Homo sapiens, UniProt P03952); assay: Assay for kallikrein inhibitory activity (Example 36); conditions: final concentration up to ×10^-5 M; enzyme 1.0 × 10^-7 M
T2 construct: (7) Human plasma kallikrein (Kabi, Daiichi Kagaku Yakuhin); purchased Kabi (via Daiichi Kagaku Yakuhin); host or cells: human plasma
Method: H. Human plasma kallikrein (Protogene, Funakoshi Yakuhin)
Kallikrein: 50 mM Tris-HCl, 361 mM NaCl, 0.01 mg/ml Polybrene (pH 7.8) […]
as §2
h. H.D-Pro-Phe-Arg-pNA (Kabi Vitram)
as §3

Human plasma plasmin = molecular target: T3, Human plasma plasmin (Homo sapiens, UniProt P00747); assay: Assay for plasmin inhibitory activity (Example 36); conditions: final concentration up to ×10^-5 M; enzyme 1.0 × 10^-7 M
T3 construct: (6) Human plasma plasmin (Kabi, Daiichi Kagaku Yakuhin); purchased Kabi (via Daiichi Kagaku Yakuhin); host or cells: human plasma
Method: G. Human plasma plasmin (sigma)
Plasmin: 50 mM Tris-HCl, 100 mM NaCl (pH 7.4) […]
as §2
g. H.D-Val-Leu-Lys-pNA (Kabi Vitrum)
as §3

[1] = molecular target: T4, polymorphonuclear leucocyte elastase from human sputum (Homo sapiens, UniProt P08246); assay: Assay for elastase inhibitory activity (Example 35); conditions: enzyme 2 × 10^-8 M, substrate 3.0 × 10^-4 M
T4 construct: Polymorphonuclear leukocyte elastase from human sputum (EPC Co; Funakoshi Yakuhin); purchased EPC Co. (via Funakoshi Yakuhin); host or cells: human sputum
T4 sequence (P08246 30-267): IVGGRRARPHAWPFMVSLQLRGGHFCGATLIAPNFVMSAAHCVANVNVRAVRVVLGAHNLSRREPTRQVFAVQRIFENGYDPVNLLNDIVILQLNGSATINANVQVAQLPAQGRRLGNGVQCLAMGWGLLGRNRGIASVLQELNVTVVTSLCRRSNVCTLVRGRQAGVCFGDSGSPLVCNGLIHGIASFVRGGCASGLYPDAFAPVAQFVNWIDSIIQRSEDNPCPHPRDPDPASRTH
Method: (§4) Assay method used was as follows.
(§5) Buffer: 0.1M (2-hydroxyethyl)piperazine-N'-2-ethansulfonic acid (HEPES), 0.5M NaCl, pH 7.5.
(§6) Enzyme concentration: the following enzyme was dissolved in the above-mentioned buffer to a concentration 9 times that shown in Table 22.
(§7) A. Polymorphonuclear leucocyte elastase from human sputum (EPC Co., Funakoshi Yakuhin)
Substrate solution: for the enzymes A, B, C, D and E, the following substrate a, b, c, d or e, respectively, was dissolved in a solution of DMSO +the above-mentioned buffer (1:9) (note, final concentration of DMSO was 10% in the buffer) to a concentration of 9 times that shown in Table 22.
(§8) a. MeO-Suc-Ala-Ala-Pro-Val-pNA (Bachem) […]
(§9) To wells of an ELISA 96-well microtiter plate, were added 120 μl of the buffer and the 20 μl of a sample solution of (Arg^58 -Ala^107) SLPI obtained in Example 34, followed by 20 μl of the enzyme solution. The mixture was reacted at 37° C. for 10 minutes. Next, 20 μl of the substrate was added, and developed at 37° C. The developed color was measured by absorption at 405 nm.
(§10) As a control the same procedure was carried out using SLPI.

Bovine spleen trypsin = molecular target: T5, Bovine spleen trypsin (Bos taurus, UniProt P00760); assay: Assay for trypsin inhibitory activity (Example 35); conditions: enzyme 2 × 10^-7 M, substrate 1.0 × 10^-3 M
T5 construct: purchased Sigma
T5 sequence (P00760 24-246): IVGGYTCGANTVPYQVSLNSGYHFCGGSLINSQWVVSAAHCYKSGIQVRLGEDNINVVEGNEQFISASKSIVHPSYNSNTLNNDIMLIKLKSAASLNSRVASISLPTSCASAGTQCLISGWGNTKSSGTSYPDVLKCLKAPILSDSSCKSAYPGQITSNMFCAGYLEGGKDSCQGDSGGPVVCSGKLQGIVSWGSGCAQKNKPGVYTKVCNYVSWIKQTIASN
Method: as §4, §5, §6
B. Bovine spleen trypsin (Sigma)
Substrate solution: for the enzymes A, B, C, D and E, the following substrate a, b, c, d or e, respectively, was dissolved in a solution of DMSO +the above-mentioned buffer (1:9) (note, final concentration of DMSO was 10% in the buffer) to a concentration of 9 times that shown in Table 22. […]
as §9, §10

[2] = system: polymorphonuclear leucocyte elastase from human sputum; assay: Inhibitory constant (Ki) assay, elastase (Example 37); conditions: from Table 26
Method: Method for assay is as follow.
Buffer: 0.1M N-(2-hydroxyethyl)piperazine-N'-2-ethanesulfonic acid (HEPES), 1.0M NaCl, 0.1% polyethylene glycol (pH 7.5)
Enzyme solution: the following enzyme was dissolved in the above-mentioned buffer to a concentration 9 times that shown in Table 25.
as §7
Substrate solution: for the enzymes A and B, the following substrate a or b was dissolved in a solution of DMSO+the above-mentioned buffer (1:9), or in DMSO, respectively.
as §8
To wells of an ELISA 96-well microtiter plate, were added 120 μl of the buffer, 20 μl of a sample solution of ([…] -Ala^107) SLPI obtained in Example 25, and 20 μl of the enzyme solution in this order, an the mixture was reacted at 37° C. for 1 hour. Next, 20 μl of the substrate was added to develop at 25° C. Absorption of the developed color was measured at 405 nm. As a control, SLPI was used.
On the basis of the result thus obtained, an inhibitory constant (Ki) of (Arg^58 -Ala^107) SLPI of the present invention was calculated according to the method of Henderson (Henderson, P. J. F. (1972), Biochem. J. 127, 321-333).

T3 sequence (P00747 581-810 limits assumed): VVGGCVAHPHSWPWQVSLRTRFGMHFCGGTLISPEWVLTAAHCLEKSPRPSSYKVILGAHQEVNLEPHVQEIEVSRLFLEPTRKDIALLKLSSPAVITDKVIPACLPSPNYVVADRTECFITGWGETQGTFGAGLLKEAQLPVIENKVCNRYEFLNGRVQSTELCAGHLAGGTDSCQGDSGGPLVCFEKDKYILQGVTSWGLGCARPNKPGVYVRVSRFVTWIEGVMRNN
T3 sequence (P00747 97-580 partner limits assumed): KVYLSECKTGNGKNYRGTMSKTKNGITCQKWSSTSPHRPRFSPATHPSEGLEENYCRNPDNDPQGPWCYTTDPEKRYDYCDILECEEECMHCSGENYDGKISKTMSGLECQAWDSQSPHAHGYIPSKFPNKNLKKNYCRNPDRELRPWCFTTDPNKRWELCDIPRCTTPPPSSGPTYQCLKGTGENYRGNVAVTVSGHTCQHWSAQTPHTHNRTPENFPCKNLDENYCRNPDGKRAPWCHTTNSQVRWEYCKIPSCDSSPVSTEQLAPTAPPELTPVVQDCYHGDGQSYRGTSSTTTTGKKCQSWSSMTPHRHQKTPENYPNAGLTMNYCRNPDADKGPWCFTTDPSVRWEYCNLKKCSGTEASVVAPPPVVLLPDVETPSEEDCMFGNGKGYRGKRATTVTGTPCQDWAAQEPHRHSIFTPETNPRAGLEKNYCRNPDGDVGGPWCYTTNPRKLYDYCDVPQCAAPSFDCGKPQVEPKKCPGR
T2 sequence (P03952 391-638 limits assumed): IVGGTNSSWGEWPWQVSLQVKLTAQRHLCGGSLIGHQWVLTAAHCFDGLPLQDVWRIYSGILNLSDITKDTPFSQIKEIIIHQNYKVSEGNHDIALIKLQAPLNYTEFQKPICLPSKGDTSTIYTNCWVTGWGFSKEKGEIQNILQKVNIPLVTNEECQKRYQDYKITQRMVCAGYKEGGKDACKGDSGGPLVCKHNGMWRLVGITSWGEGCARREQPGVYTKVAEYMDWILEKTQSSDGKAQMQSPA
T2 sequence (P03952 20-390 partner limits assumed): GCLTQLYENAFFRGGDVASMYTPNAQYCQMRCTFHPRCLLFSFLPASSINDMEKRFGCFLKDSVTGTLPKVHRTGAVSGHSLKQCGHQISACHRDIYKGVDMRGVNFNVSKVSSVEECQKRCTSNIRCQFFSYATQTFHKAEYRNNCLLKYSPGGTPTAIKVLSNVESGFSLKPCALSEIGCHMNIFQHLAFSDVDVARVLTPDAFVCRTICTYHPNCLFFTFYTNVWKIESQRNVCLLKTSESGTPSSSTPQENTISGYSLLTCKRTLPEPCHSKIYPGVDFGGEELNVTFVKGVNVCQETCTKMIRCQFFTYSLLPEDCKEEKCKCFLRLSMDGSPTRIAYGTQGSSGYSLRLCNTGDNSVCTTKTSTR

inhibitory activity to thrombin (Human plasma thrombin): did not exhibit inhibitory activity
inhibitory activity to kallikrein (Human plasma kallikrein): did not exhibit inhibitory activity
inhibitory activity to plasmin (Human plasma plasmin): did not exhibit inhibitory activity
IC50 [1]: 12 nM
IC50 (Bovine spleen trypsin): 2000 nM
relative ratio of inhibitory activity on trypsin to that on elastase (Ki(T)/Ki(E)) [2]: about 12,000
Substance: (Arg^58 -Ala^107) SLPI: polypeptide having an amino acid sequence starting with the 58th Arg and ending at the 107th Ala of SLPI (RRKPGKCPVTYGQCLMLNPPNFCEMDGQCKRDLKCCMGMCGKSCVSPVKA)
inhibitory activity to FXa (Porcine FXa): did not exhibit inhibitory activity
